Laboratory results as given in paper PMC5563082.

Experiments:
[1] = target: human NL1(–A+B)_(ECTO), immobilised for SPR (human); experiment: SPR; biotinylated NL_(ECTO)-Avitag variants captured from dialysed conditioned medium on streptavidin CM5 chip (500 RU; 550 RU for the ΔSite series; 1000 RU for NL3 and NL3 Arg451Cys in the R451C series); β-NRX1_(LNS6)(±4), MDGA1_(ECTO), MDGA2_(ECTO) injected, 15 concentrations, two-fold series from 50 μM; TBS-CTB (10 mM Tris pH 7.4, 150 mM NaCl, 3 mM CaCl2, 0.005% Tween-20, 1.0 g/L BSA); equilibrium analysis, 1:1 Langmuir model
[2] = target: human NL1(–A–B)_(ECTO), biotinylated and immobilised for SPR (human); experiment: as above
Chain of human NL1(–A–B)_(ECTO), biotinylated and immobilised for SPR (human) (Q8N2Q7 whole entry): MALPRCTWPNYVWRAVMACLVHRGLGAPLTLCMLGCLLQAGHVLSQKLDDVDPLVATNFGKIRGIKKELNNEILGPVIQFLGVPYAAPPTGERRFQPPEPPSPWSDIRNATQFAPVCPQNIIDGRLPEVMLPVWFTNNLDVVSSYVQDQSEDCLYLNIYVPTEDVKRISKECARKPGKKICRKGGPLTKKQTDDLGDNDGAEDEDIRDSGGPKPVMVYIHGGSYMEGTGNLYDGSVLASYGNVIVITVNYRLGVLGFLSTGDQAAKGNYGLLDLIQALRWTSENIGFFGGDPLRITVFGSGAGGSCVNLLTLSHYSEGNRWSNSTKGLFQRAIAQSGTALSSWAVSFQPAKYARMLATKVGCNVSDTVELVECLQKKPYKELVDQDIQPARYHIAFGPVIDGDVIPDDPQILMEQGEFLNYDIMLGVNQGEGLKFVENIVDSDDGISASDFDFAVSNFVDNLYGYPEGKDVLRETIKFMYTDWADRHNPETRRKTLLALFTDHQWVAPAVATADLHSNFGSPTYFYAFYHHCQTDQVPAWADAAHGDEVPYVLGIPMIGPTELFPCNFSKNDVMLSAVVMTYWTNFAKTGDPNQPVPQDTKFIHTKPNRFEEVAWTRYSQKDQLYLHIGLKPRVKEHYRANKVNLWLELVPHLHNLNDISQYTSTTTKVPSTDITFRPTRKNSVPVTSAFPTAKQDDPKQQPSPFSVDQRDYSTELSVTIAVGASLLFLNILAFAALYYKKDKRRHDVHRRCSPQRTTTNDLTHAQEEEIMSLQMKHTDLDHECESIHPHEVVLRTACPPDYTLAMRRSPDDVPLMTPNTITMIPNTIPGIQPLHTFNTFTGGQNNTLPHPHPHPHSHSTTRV

Chain of human NL1(–A+B)_(ECTO), immobilised for SPR (human) (Q8N2Q7 whole entry): as above

B1: human MDGA2 extracellular domain (MDGA2_(ECTO); Gln21-Lys927) (domain or fragment)
chain: QGVYAPPTVRIVHSGLACNIEEERYSERVYTIREGETLELTCLVTGHPRPQIRWTKTAGSASDRFQDSSVFNETLRITNIQRHQGGRYYCKAENGLGSPAIKSIRVDVYYLDDPVVTVHQSIGEAKEQFYYERTVFLRCVANSNPPVRYSWRRGQEVLLQGSDKGVEIYEPFFTQGETKILKLKNLRPQDYANYSCIASVRNVCNIPDKMVSFRLSNKTASPSIKLLVDDPIVVNPGEAITLVCVTTGGEPAPSLTWVRSFGTLPEKTVLNGGTLTIPAITSDDAGTYSCIANNNVGNPAKKSTNIIVRALKKGRFWITPDPYHKDDNIQIGREVKISCQVEAVPSEELTFSWFKNGRPLRSSERMVITQTDPDVSPGTTNLDIIDLKFTDFGTYTCVASLKGGGISDISIDVNISSSTVPPNLTVPQEKSPLVTREGDTIELQCQVTGKPKPIILWSRADKEVAMPDGSMQMESYDGTLRIVNVSREMSGMYRCQTSQYNGFNVKPREALVQLIVQYPPAVEPAFLEIRQGQDRSVTMSCRVLRAYPIRVLTYEWRLGNKLLRTGQFDSQEYTEYAVKSLSNENYGVYNCSIINEAGAGRCSFLVTGKAYAPEFYYDTYNPVWQNRHRVYSYSLQWTQMNPDAVDRIVAYRLGIRQAGQQRWWEQEIKINGNIQKGELITYNLTELIKPEAYEVRLTPLTKFGEGDSTIRVIKYSAPVNPHLREFHCGFEDGNICLFTQDDTDNFDWTKQSTATRNTKYTPNTGPNADRSGSKEGFYMYIETSRPRLEGEKARLLSPVFSIAPKNPYGPTNTAYCFSFFYHMYGQHIGVLNVYLRLKGQTTIENPLWSSSGNKGQRWNEAHVNIYPITSFQLIFEGIRGPGIEGDIAIDDVSIAEGECAKQDLATK
In the case of B1, the fold weaker than with NL1(–A–B) (ECTO) [1] is reported as 7 fold and the Kd [2] is reported as 1000 nM.

B2: human MDGA1 extracellular domain (MDGA1_(ECTO); Gln19-Lys925) (domain or fragment)
chain: QGVYAPAQAQIVHAGQACVVKEDNISERVYTIREGDTLMLQCLVTGHPRPQVRWTKTAGSASDKFQETSVFNETLRIERIARTQGGRYYCKAENGVGVPAIKSIRVDVQYLDEPMLTVHQTVSDVRGNFYQEKTVFLRCTVNSNPPARFIWKRGSDTLSHSQDNGVDIYEPLYTQGETKVLKLKNLRPQDYASYTCQVSVRNVCGIPDKAITFRLTNTTAPPALKLSVNETLVVNPGENVTVQCLLTGGDPLPQLQWSHGPGPLPLGALAQGGTLSIPSVQARDSGYYNCTATNNVGNPAKKTVNLLVRSMKNATFQITPDVIKESENIQLGQDLKLSCHVDAVPQEKVTYQWFKNGKPARMSKRLLVTRNDPELPAVTSSLELIDLHFSDYGTYLCMASFPGAPVPDLSVEVNISSETVPPTISVPKGRAVVTVREGSPAELQCEVRGKPRPPVLWSRVDKEAALLPSGLPLEETPDGKLRLERVSRDMSGTYRCQTARYNGFNVRPREAQVQLNVQFPPEVEPSSQDVRQALGRPVLLRCSLLRGSPQRIASAVWRFKGQLLPPPPVVPAAAEAPDHAELRLDAVTRDSSGSYECSVSNDVGSAACLFQVSAKAYSPEFYFDTPNPTRSHKLSKNYSYVLQWTQREPDAVDPVLNYRLSIRQLNQHNAVVKAIPVRRVEKGQLLEYILTDLRVPHSYEVRLTPYTTFGAGDMASRIIHYTEPINSPNLSDNTCHFEDEKICGYTQDLTDNFDWTRQNALTQNPKRSPNTGPPTDISGTPEGYYMFIETSRPRELGDRARLVSPLYNASAKFYCVSFFYHMYGKHIGSLNLLVRSRNKGALDTHAWSLSGNKGNVWQQAHVPISPSGPFQIIFEGVRGPGYLGDIAIDDVTLKKGECPRKQTDPNK
In the case of B2, the fold weaker than with NL1(–A–B) (ECTO) [1] is reported as 7 fold and the Kd [2] is reported as 2000 nM.
